Measured values: US20040105862A1 (published 2004)
Where two headings read alike, the source gives them in different places. One block for each binder: values may come before it.

Legend:
rat TIMP-1 [1] = biological target: T1, rat TIMP-1 (rat, UniProt P30120 24-217); assay: BIAcore SPR, Fab
T1 construct: Immobilised on BIAcore chip or ELISA plate; in solution in the protease assay

rat TIMP-1 [2] = biological target: T1, rat TIMP-1; assay: cell-based or functional assay
rat TIMP-1 [3] = biological target: T1, rat TIMP-1; assay: cell-based or functional assay; remark: listed apart in the source
human TIMP-1 [4] = biological target: T2, human TIMP-1 (human, UniProt P01033 24-207); assay: cell-based or functional assay
human TIMP-1 [5] = biological target: T2, human TIMP-1; assay: BIAcore SPR, Fab, monovalent fit
human TIMP-1 [6] = biological target: T2, human TIMP-1; assay: BIAcore SPR, Fab, monovalent fit; remark: listed apart in the source
human TIMP-1 [7] = biological target: T2, human TIMP-1; assay: cell-based or functional assay; remark: listed apart in the source
human TIMP-1 [8] = biological target: T2, human TIMP-1; assay: cell-based or functional assay; remark: listed apart in the source
human TIMP-1 [9] = biological target: T2, human TIMP-1; assay: BIAcore SPR, Fab

T1 sequence (P30120 24-217 limits assumed): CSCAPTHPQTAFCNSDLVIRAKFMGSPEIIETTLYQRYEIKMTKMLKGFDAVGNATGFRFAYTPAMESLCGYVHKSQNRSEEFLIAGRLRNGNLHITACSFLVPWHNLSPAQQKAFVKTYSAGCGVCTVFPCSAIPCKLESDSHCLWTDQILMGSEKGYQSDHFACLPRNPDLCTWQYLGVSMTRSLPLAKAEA

- improvement factor (affinity) over parental clone (rat TIMP-1 [1]): 16.3 fold
B1: MS-BW-17-1 Fab (Fab, V domains shown)
VH: QVQLVQSGAEVKKPGESLKISCKGSGYSFTSYWIGWVRQMPGKGLEWMGIIYPGDSDTRYSPSFQGQVTISADKSISTAYLQWSSLKASDTAMYYCARLTNYFDSIYYDHWGQGTLVTVSS
VL: DIALTQPASVSGSPGQSITISCTGTSSDVGGYNYVSWYQQHPGKAPKLMIYDVSNRPSGVSNRFSGSKSGNTASLTISGLQAEDEADYYCQAFDVAPNGKVFGGGTKLTVLG
notes: Fab; LCDR3-optimised from MS-BW-17

- improvement factor (functional activity in the protease assay) over parental clone (rat TIMP-1 [2]): 10 fold
B2: MS-BW-17-2 (Fab, V domains shown)
VH: QVQLVQSGAEVKKPGESLKISCKGSGYSFTSYWIGWVRQMPGKGLEWMGIIYPGDSDTRYSPSFQGQVTISADKSISTAYLQWSSLKASDTAMYYCARLTNYFDSIYYDHWGQGTLVTVSS
VL: DIALTQPASVSGSPGQSITISCTGTSSDVGGYNYVSWYQQHPGKAPKLMIYDVSNRPSGVSNRFSGSKSGNTASLTISGLQAEDEADYYCQAFAVMPNVEVFGGGTKLTVLG

- IC50 in rat protease assay (rat TIMP-1 [3]): 20 mM
B3: MS-BW-63 (Fab, V domains shown)
VH: QVQLVQSGAEVKKPGESLKISCKGSGYSFTSYWIGWVRQMPGKGLEWMGIIYPGDSDTRYSPSFQGQVTISADKSISTAYLQWSSLKASDTAMYYCARILTGHVLLFDYWGQGTLVTVSS
VL: DIALTQPASVSGSPGQSITISCTGTSSDVGGYNYVSWYQQHPGKAPKLMIYDVSNRPSGVSNRFSGSKSGNTASLTISGLQAEDEADYYCQSDNPYLVFGGGTKLTVLG

- IC50 in human protease assay (human TIMP-1 [4]): 11 nM
- Kd (human TIMP-1 [5]): 13 nM
- Kd (human TIMP-1 [6]): 13 nM
B4: MS-BW-3 (Fab, V domains shown)
VH: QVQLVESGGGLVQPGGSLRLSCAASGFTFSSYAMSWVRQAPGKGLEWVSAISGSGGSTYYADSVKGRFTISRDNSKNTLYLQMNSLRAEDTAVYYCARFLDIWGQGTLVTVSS
VL: DIALTQPASVSGSPGQSITISCTGTSSDVGGYNYVSWYQQHPGKAPKLMIYDVSNRPSGVSNRFSGSKSGNTASLTISGLQAEDEADYYCQSYDFLRFSVFGGGTKLTVL

- improvement factor (IC50) over MS-BW-3 (human TIMP-1 [7]): 2.75 fold
B5: MS-BW-44 (Fab, V domains shown)
VH: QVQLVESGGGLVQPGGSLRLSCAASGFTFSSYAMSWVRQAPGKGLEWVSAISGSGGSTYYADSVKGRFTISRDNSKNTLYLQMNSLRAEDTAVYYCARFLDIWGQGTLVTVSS
VL: DIALTQPASVSGSPGQSITISCTGTSSDVGGYNYVSWYQQHPGKAPKLMIYDVSNRPSGVSNRFSGSKSGNTASLTISGLQAEDEADYYCQSYDFVRFMVFGGGTKLTVLG

- ID50 in human protease assay (modified assay) (human TIMP-1 [8]): 0.3 nM
B6: MS-BW-44-2-16 (Fab, V domains shown)
VH: QVQLVESGGGLVQPGGSLRLSCAASGFTFSSYAMSWVRQAPGKGLEWVSGISGNGVLIFYADSVKGRFTISRDNSKNTLYLQMNSLRAEDTAVYYCARWFDVWGQGTLVTVSS
VL: DIALTQPASVSGSPGQSITISCTGTSSDVGGYNYVSWYQQHPGKAPKLMIYDVSNRPSGVSNRFSGSKSGNTASLTISGLQAEDEADYYCQSYDFVRFMVFGGGTKLTVLG

- ID50 in human protease assay (modified assay) (human TIMP-1 [8]): 0.2 nM
B7: MS-BW-44-2-15 (Fab, V domains shown)
VH: QVQLVESGGGLVQPGGSLRLSCAASGFTFSSYAMSWVRQAPGKGLEWVSGISGNGVLIFYADSVKGRFTISRDNSKNTLYLQMNSLRAEDTAVYYCARWFDHWGQGTLVTVSS
VL: DIALTQPASVSGSPGQSITISCTGTSSDVGGYNYVSWYQQHPGKAPKLMIYDVSNRPSGVSNRFSGSKSGNTASLTISGLQAEDEADYYCQSYDFVRFMVFGGGTKLTVLG

- ID50 in human protease assay (modified assay) (human TIMP-1 [8]): 0.2 nM
B8: MS-BW-44-2-4 (Fab, V domains shown)
VH: QVQLVESGGGLVQPGGSLRLSCAASGFTFSSYAMSWVRQAPGKGLEWVSGISGNGVLIFYADSVKGRFTISRDNSKNTLYLQMNSLRAEDTAVYYCARGLMDYWGQGTLVTVSS
VL: DIALTQPASVSGSPGQSITISCTGTSSDVGGYNYVSWYQQHPGKAPKLMIYDVSNRPSGVSNRFSGSKSGNTASLTISGLQAEDEADYYCQSYDFVRFMVFGGGTKLTVLG

- ID50 in human protease assay (modified assay) (human TIMP-1 [8]): 0.2 nM
B9: MS-BW-44-6-1 (Fab, V domains shown)
VH: QVQLVESGGGLVQPGGSLRLSCAASGFTFNSYAMSWVRQAPGKGLEWVSVISGNGSNTYYADSVKGRFTISRDNSKNTLYLQMNSLRAEDTAVYYCARFLDIWGQGTLVTVSS
VL: DIALTQPASVSGSPGQSITISCTGTSSDVGGYNYVSWYQQHPGKAPKLMIYDVSNRPSGVSNRFSGSKSGNTASLTISGLQAEDEADYYCQSYDFIRFMVFGGGTKLTVLG

- affinity gain factor (Kd) over MS-BW-44 (human TIMP-1 [9]): 5 fold
- gain factor (IC50) over MS-BW-44 (human TIMP-1 [7]): 10 fold
- ID50 in human protease assay (modified assay) (human TIMP-1 [8]): 0.2 nM
B10: MS-BW-44-6 (Fab, V domains shown)
VH: QVQLVESGGGLVQPGGSLRLSCAASGFTFNSYAMSWVRQAPGKGLEWVSVISGNGSNTYYADSVKGRFTISRDNSKNTLYLQMNSLRAEDTAVYYCARFLDIWGQGTLVTVSS
VL: DIALTQPASVSGSPGQSITISCTGTSSDVGGYNYVSWYQQHPGKAPKLMIYDVSNRPSGVSNRFSGSKSGNTASLTISGLQAEDEADYYCQSYDFVRFMVFGGGTKLTVLG
notes: Fab

- affinity gain factor (Kd) over MS-BW-44 (human TIMP-1 [9]): 5 fold
- gain factor (IC50) over MS-BW-44 (human TIMP-1 [7]): 5 fold
- ID50 in human protease assay (modified assay) (human TIMP-1 [8]): 0.4 nM
B11: MS-BW-44-2 (Fab, V domains shown)
VH: QVQLVESGGGLVQPGGSLRLSCAASGFTFSSYAMSWVRQAPGKGLEWVSGISGNGVLIFYADSVKGRFTISRDNSKNTLYLQMNSLRAEDTAVYYCARFLDIWGQGTLVTVSS
VL: DIALTQPASVSGSPGQSITISCTGTSSDVGGYNYVSWYQQHPGKAPKLMIYDVSNRPSGVSNRFSGSKSGNTASLTISGLQAEDEADYYCQSYDFVRFMVFGGGTKLTVLG
notes: Fab
